# B1: GpH7-A5/GpH7-B3 variant K334_01G/GpL16-k0 (antibody, human IgG1, kappa)
# heavy 1: not shown
# heavy 2: not shown
# light: DIVMTQSPLSLPVTPGEPASISCQASESLVHSNRNTYLHWYLQKPGQSPQLLIYKVSNRFSGVPDRFSGSGSGTDFTLKISRVEAEDVGVYYCSQNTHVPPTFGQGTKVEIERTVAAPSVFIFPPSDEQLKSGTASVVCLLNNFYPREAKVQWKVDNALQSGNSQESVTEQDSKDSTYSLSSTLTLSKADYEKHKVYACEVTHQGLSSPVTKSFNRGEC
# notes: position is EU numbering; also called He Ab
# B2: GpH7-A5/GpH7-B3 variant S298_14T/GpL16-k0 (antibody, human IgG1, kappa)
# heavy 1: not shown
# heavy 2: not shown
# light: B1 light
# notes: as for B1
# B3: GpH7-A5/GpH7-B3 variant S324_10E/GpL16-k0 (antibody, human IgG1, kappa)
# heavy 1: not shown
# heavy 2: not shown
# light: B1 light
# notes: as for B1
# B4: GpH7-A5/GpH7-B3 variant S324_11K/GpL16-k0 (antibody, human IgG1, kappa)
# heavy 1: not shown
# heavy 2: not shown
# light: B1 light
# notes: as for B1
# B5: GpH7-A5/GpH7-B3 variant S298_07I/GpL16-k0 (antibody, human IgG1, kappa)
# heavy 1: not shown
# heavy 2: not shown
# light: B1 light
# notes: as for B1
# B6: GpH7-A5/GpH7-B3 variant K334_04F/GpL16-k0 (antibody, human IgG1, kappa)
# heavy 1: not shown
# heavy 2: not shown
# light: B1 light
# notes: as for B1
# B7: GpH7-A5/GpH7-B3 variant Q295_18N/GpL16-k0 (antibody, human IgG1, kappa)
# heavy 1: not shown
# heavy 2: not shown
# light: B1 light
# notes: as for B1
# B8: GpH7-A5/GpH7-B3 variant K334_07I/GpL16-k0 (antibody, human IgG1, kappa)
# heavy 1: not shown
# heavy 2: not shown
# light: B1 light
# notes: as for B1
# B9: GpH7-A5/GpH7-B3 variant S324_19Q/GpL16-k0 (antibody, human IgG1, kappa)
# heavy 1: not shown
# heavy 2: not shown
# light: B1 light
# notes: as for B1
# B10: GpH7-A5/GpH7-B3 variant Q295_13S/GpL16-k0 (antibody, human IgG1, kappa)
# heavy 1: not shown
# heavy 2: not shown
# light: B1 light
# notes: as for B1
# B11: GpH7-A5/GpH7-B3 variant S324_16H/GpL16-k0 (antibody, human IgG1, kappa)
# heavy 1: not shown
# heavy 2: not shown
# light: B1 light
# notes: as for B1
# B12: GpH7-A5/GpH7-B3 variant Y296_20W/GpL16-k0 (antibody, human IgG1, kappa)
# heavy 1: not shown
# heavy 2: not shown
# light: B1 light
# notes: as for B1
# B13: GpH7-A5/GpH7-B3 variant P329_02A/GpL16-k0 (antibody, human IgG1, kappa)
# heavy 1: not shown
# heavy 2: not shown
# light: B1 light
# notes: as for B1
# B14: GpH7-A5/GpH7-B3 variant S298_16H/GpL16-k0 (antibody, human IgG1, kappa)
# heavy 1: not shown
# heavy 2: not shown
# light: B1 light
# notes: as for B1
# B15: GpH7-A5/GpH7-B3 variant Q295_14T/GpL16-k0 (antibody, human IgG1, kappa)
# heavy 1: not shown
# heavy 2: not shown
# light: B1 light
# notes: as for B1
# B16: GpH7-A5/GpH7-B3 variant Q295_16H/GpL16-k0 (antibody, human IgG1, kappa)
# heavy 1: not shown
# heavy 2: not shown
# light: B1 light
# notes: as for B1
# B17: GpH7-A5/GpH7-B3 variant S324_02A/GpL16-k0 (antibody, human IgG1, kappa)
# heavy 1: not shown
# heavy 2: not shown
# light: B1 light
# notes: as for B1
# B18: GpH7-A5/GpH7-B3 variant K334_06M/GpL16-k0 (antibody, human IgG1, kappa)
# heavy 1: not shown
# heavy 2: not shown
# light: B1 light
# notes: as for B1
# B19: GpH7-A5/GpH7-B3 variant K334_08L/GpL16-k0 (antibody, human IgG1, kappa)
# heavy 1: not shown
# heavy 2: not shown
# light: B1 light
# notes: as for B1
# B20: GpH7-A5/GpH7-B3 variant P329_11K/GpL16-k0 (antibody, human IgG1, kappa)
# heavy 1: not shown
# heavy 2: not shown
# light: B1 light
# notes: as for B1
# B21: GpH7-A5/GpH7-B3 variant P329_12R/GpL16-k0 (antibody, human IgG1, kappa)
# heavy 1: not shown
# heavy 2: not shown
# light: B1 light
# notes: as for B1
# B22: GpH7-A5/GpH7-B3 variant K334_02A/GpL16-k0 (antibody, human IgG1, kappa)
# heavy 1: not shown
# heavy 2: not shown
# light: B1 light
# notes: as for B1
# B23: GpH7-A5/GpH7-B3 variant K334_05P/GpL16-k0 (antibody, human IgG1, kappa)
# heavy 1: not shown
# heavy 2: not shown
# light: B1 light
# notes: as for B1
# B24: GpH7-A5/GpH7-B3 variant S298_09D/GpL16-k0 (antibody, human IgG1, kappa)
# heavy 1: not shown
# heavy 2: not shown
# light: B1 light
# notes: as for B1
# B25: GpH7-A5/GpH7-B3 variant S324_12R/GpL16-k0 (antibody, human IgG1, kappa)
# heavy 1: not shown
# heavy 2: not shown
# light: B1 light
# notes: as for B1
# B26: GpH7-A5/GpH7-B3 variant S298_15Y/GpL16-k0 (antibody, human IgG1, kappa)
# heavy 1: not shown
# heavy 2: not shown
# light: B1 light
# notes: as for B1
# B27: GpH7-A5/GpH7-B3 variant S324_01G/GpL16-k0 (antibody, human IgG1, kappa)
# heavy 1: not shown
# heavy 2: not shown
# light: B1 light
# notes: as for B1
# B28: GpH7-A5/GpH7-B3 variant K334_09D/GpL16-k0 (antibody, human IgG1, kappa)
# heavy 1: not shown
# heavy 2: not shown
# light: B1 light
# notes: as for B1
# B29: GpH7-A5/GpH7-B3 variant S298_04F/GpL16-k0 (antibody, human IgG1, kappa)
# heavy 1: not shown
# heavy 2: not shown
# light: B1 light
# notes: as for B1
# B30: GpH7-A5/GpH7-B3 variant S298_03V/GpL16-k0 (antibody, human IgG1, kappa)
# heavy 1: not shown
# heavy 2: not shown
# light: B1 light
# notes: as for B1
# Target: T1, FcγRIIIa extracellular domain with C-terminal His tag (human, UniProt P08637 17-208)
# T1 construct: extracellular domain; also called FcgRIIIa; 3a; not shown: His tag at the C terminus
# T1 sequence (P08637 17-208): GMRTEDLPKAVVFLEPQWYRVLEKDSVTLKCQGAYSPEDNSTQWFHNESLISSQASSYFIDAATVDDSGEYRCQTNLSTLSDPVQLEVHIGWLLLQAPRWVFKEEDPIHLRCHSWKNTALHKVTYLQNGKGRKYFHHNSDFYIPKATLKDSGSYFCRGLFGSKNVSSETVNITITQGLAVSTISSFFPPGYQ
# Test: SPR (Biacore); ratio of He/Con_3a (FcγRIIIa) to He/Con_2b (FcγRIIb)
# Experimental: (§1) The heterodimerized antibodies He Abs in which one of the H chains was introduced with an alteration were assayed for their binding activities to each activating FcγR and inhibitory FcγR according to the method described in Example 4. […] The activating FcγRs in FIGS. 26, 27, 28, and 29 are FcγRIa, FcγRIIa (R), FcγRIIa (H), and FcγRIIIa, respectively.
# (§2) Analysis of interaction between objective antibody and the FcγR was carried out using Biacore T100 (GE Healthcare). HBS-EP+ (GE Healthcare) was used as the running buffer, and the measurement temperature was set to 25° C. Chips produced by immobilizing the antigen peptide by the amine coupling method to a Series S Sencor Chip CM5 (GE Healthcare), or alternatively, chips produced by allowing preliminarily biotinylated antigen peptides to interact with and immobilize onto a Series S Sensor Chip SA (certified) (GE Healthcare) were used. Antibodies of interest were captured onto an antigen peptide-immobilized chip, and allowed to interact to each FcγR diluted with running buffer. To regenerate and repeatedly use the chip, the antibodies captured on the chip were washed off by reacting 10 mM glycine-HCl, pH 1.5.
row,Binder,He_3a/2b (IIIa/IIb) [ratio]
1,B1,1.31
2,B2,1.45
3,B3,1.28
4,B4,1.21
5,B5,1.37
6,B6,1.33
7,B7,1.26
8,B8,1.27
9,B9,1.33
10,B10,1.51
11,B11,1.24
12,B12,1.31
13,B13,1.39
14,B14,1.2
15,B15,1.72
16,B16,1.22
17,B17,1.33
18,B18,1.33
19,B19,1.35
20,B20,1.76
21,B21,1.52
22,B22,1.37
23,B23,1.27
24,B24,1.38
25,B25,1.43
26,B26,1.39
27,B27,1.29
28,B28,1.69
29,B29,1.26
30,B30,1.69

# Target: T2, FcγRIIb extracellular domain with C-terminal His tag (human, UniProt P31994 43-217)
# T2 construct: extracellular domain; also called FcgRIIb; 2b; not shown: His tag at the C terminus
# T2 sequence (looked up): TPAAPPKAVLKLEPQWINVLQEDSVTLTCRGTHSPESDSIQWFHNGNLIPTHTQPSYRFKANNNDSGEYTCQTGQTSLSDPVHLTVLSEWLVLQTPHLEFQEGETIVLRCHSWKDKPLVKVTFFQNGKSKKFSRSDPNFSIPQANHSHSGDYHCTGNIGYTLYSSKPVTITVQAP
# Test: SPR (Biacore), antibody captured, FcγR as analyte; He Ab binding / GpH7-A5/GpH7-B3/GpL16-k0 binding x 100
# Experimental: as §1, §2
row,Binder,He/Con_2b (IIb binding)
1,B1,"92.5 relative, control = 100"
2,B2,"77.9 relative, control = 100"
3,B3,"77.4 relative, control = 100"
4,B4,"68.6 relative, control = 100"
5,B5,"70.6 relative, control = 100"
6,B6,"111 relative, control = 100"
7,B7,"64.9 relative, control = 100"
8,B8,"119 relative, control = 100"
9,B9,"66.8 relative, control = 100"
10,B10,"56.9 relative, control = 100"
11,B11,"83.5 relative, control = 100"
12,B12,"103 relative, control = 100"
13,B13,"40.5 relative, control = 100"
14,B14,"63.5 relative, control = 100"
15,B15,"66.8 relative, control = 100"
16,B16,"62.7 relative, control = 100"
17,B17,"78.3 relative, control = 100"
18,B18,"109 relative, control = 100"
19,B19,"106 relative, control = 100"
20,B20,"16.9 relative, control = 100"
21,B21,"17.6 relative, control = 100"
22,B22,"108 relative, control = 100"
23,B23,"105 relative, control = 100"
24,B24,"48.3 relative, control = 100"
25,B25,"63.1 relative, control = 100"
26,B26,"61.4 relative, control = 100"
27,B27,"81.1 relative, control = 100"
28,B28,"94.8 relative, control = 100"
29,B29,"65.4 relative, control = 100"
30,B30,"64.5 relative, control = 100"

# Target: T1, FcγRIIIa extracellular domain with …
# Test: as above
# Experimental: as §1, §2
row,Binder,He/Con_3a (IIIa binding)
1,B1,"121 relative, control = 100"
2,B2,"113 relative, control = 100"
3,B3,"99.3 relative, control = 100"
4,B4,"83 relative, control = 100"
5,B5,"96.4 relative, control = 100"
6,B6,"148 relative, control = 100"
7,B7,"81.6 relative, control = 100"
8,B8,"151 relative, control = 100"
9,B9,"88.5 relative, control = 100"
10,B10,"86.1 relative, control = 100"
11,B11,"104 relative, control = 100"
12,B12,"135 relative, control = 100"
13,B13,"56.4 relative, control = 100"
14,B14,"76.5 relative, control = 100"
15,B15,"115 relative, control = 100"
16,B16,"76.4 relative, control = 100"
17,B17,"104 relative, control = 100"
18,B18,"144 relative, control = 100"
19,B19,"143 relative, control = 100"
20,B20,"29.6 relative, control = 100"
21,B21,"26.7 relative, control = 100"
22,B22,"147 relative, control = 100"
23,B23,"134 relative, control = 100"
24,B24,"66.7 relative, control = 100"
25,B25,"90.3 relative, control = 100"
26,B26,"85.6 relative, control = 100"
27,B27,"105 relative, control = 100"
28,B28,"160 relative, control = 100"
29,B29,"82.5 relative, control = 100"
30,B30,"109 relative, control = 100"
